Literature values in PMC6151437, “Antibacterial Synthetic Peptides Derived from Bovine Lactoferricin Exhibit Cytotoxic Effect against MDA-MB-468 and MDA-MB-231 Breast Cancer Cell Lines” (Molecules : A Journal of Synthetic Chemistry and Natural …, 2017).

System: HT-29 cells
Design: method as in PMID 24140317
Details: maximum effects at 12 h of treatment

B1: BLF: Bovine lactoferrin, a milk protein (protein, UniProt P24627 20-708, looked up)
Lactotransferrin: APRKNVRWCTISQPEWFKCRRWQWRMKKLGAPSITCVRRAFALECIRAIAEKKADAVTLDGGMVFEAGRDPYKLRPVAAEIYGTKESPQTHYYAVAVVKKGSNFQLDQLQGRKSCHTGLGRSAGWIIPMGILRPYLSWTESLEPLQGAVAKFFSASCVPCIDRQAYPNLCQLCKGEGENQCACSSREPYFGYSGAFKCLQDGAGDVAFVKETTVFENLPEKADRDQYELLCLNNSRAPVDAFKECHLAQVPSHAVVARSVDGKEDLIWKLLSKAQEKFGKNKSRSFQLFGSPPGQRDLLFKDSALGFLRIPSKVDSALYLGSRYLTTLKNLRETAEEVKARYTRVVWCAVGPEEQKKCQQWSQQSGQNVTCATASTTDDCIVLVLKGEADALNLDGGYIYTAGKCGLVPVLAENRKSSKHSSLDCVLRPTEGYLAVAVVKKANEGLTWNSLKDKKSCHTAVDRTAGWNIPMGLIVNQTGSCAFDEFFSQSCAPGADPKSRLCALCAGDDQGLDKCVPNSKEKYYGYTGAFRCLAEDVGDVAFVKNDTVWENTNGESTADWAKNLNREDFRLLCLDGTRKPVTEAQSCHLAVAPNHAVVSRSDRAAHVKQVLLHQQALFGKNGKNCPDKFCLFKSETKNLLFNDNTECLAKLGGRPTYEEYLGTEYVTAIANLKKCSTSPLLEACAFLTR
optimal concentration for cytotoxic activity and apoptosis: 800 µg/mL
